Test results as given in a protein production outcome set (Wang et al. 2014).

Test: label from the status in PepcDB records

Row | Sequence | protein production
1 | MGSKKQIRVQNISHDNIYSGLRCFVDGSWKGSDKFSGLGWFCRSSNGDSPTMGAANLRRSLYPLHTEVEALLWSMKCMIGADNQEVAFFTDYSDLVKMVSSPTE | failed
2 | MGSLMSGWDSRVRDPKSVRRCKSLTREEIDTFWKTKKKNEEEEHVQAFSKLVTQEGAQSQAKEKKSVDDLFENQSKSSGWWRKTYWAFLNEPREEEGRPNNYVSQFKVAHIAKIAGS | failed
3 | MGSRLAESSTPMKACEEVGRPSFTSEQTASSCVIDVRDNARISSASSDGTEVESVGTAIKGELDRTARPTFTAGKNKSVRFECDLDQSNSSNSSENGSSRKPEMGGKICFTVSSPNPTPLKLSDEMQTPGTIYPANMESGGRGRPRIRSQFVHSVSNIMENASLYKVYKDSHEGLDYEEQIEAETPSSETYGEKVEESSDEKLSKFEASFSPWLNQINENIAALNERTPGVGVITPGDRPIIGLVAAQWIENEQTEISPKMWDGNGIPNSTTKYKEDQKVSWHATPFEVRLEKALSEEGGQSLFPQRKLEVMMEEVEGDTDISQLHHSVQPNSVVSF | failed
4 | MGSSHHHHHHSSGLVPRGSHMFKLTPAAAEQVLKAAKQGGTEGMCLRLAAGRNPDGSIDYRMGFDDLTEDDIRLTSEGVEIVIAPDYVSLLDQTTLDYVELEPGQFHFIFLNPRDPTYRPPSGG | not failed
5 | MGSSHHHHHHSSGRENLYFQGMTKNTRFSPEVRQRAVRMVLESQGEYDSQWATICSIAPKIGCTPETLRVWGRQHERDTGGGDGGLTTAERQRLKEPERENRELRRSNDILRQASAYFAKAEFDRLWKK | not failed
6 | MGSSSSFSSSSSKLLFRQLFENESSTFTYLLADVSHPDKPALLIDPVDKTVDRDLKLIDELGLKLIYAMNTHVHADHVTGTGLLKTKLPGVKSVISKASGSKADLFLEPGDKVSIGDIYLEVRATPGHTAGCVTYVTGEGADQPQPRMAFTGDAVLIRGCGRTDFQEGSSDQLYESVHSQIFTLPKDTLIYPAHDYKGFEVSTVGEEMQHNPRLTKDKETFKTIMSNLNLSYPKMIDVAVPANMVCGLQDVPSQAN | not failed
7 | MGSSSYAVIPGAAPRSGRRSIRAVLVLALTAGVATVVPAAQADTSTPAAAPVAAKPYMGWSSWSMQSSKYPGLNPDGDYSYLTEANVLKQTDALASKLKKYGYDHVNIDAGWWMDKNWKTQFDQYGRQTPDPVRFPHGMKSVADHIHSKGLKAGIYLPVGLEKGAYGDGKTPISKAPGCTTADIVYSDLRTTNGWDNAYKIDFDKSCAQKYIDSQAQMFADWGYDFLKLDGVGPGSFKSGDNYNNVADVAAWQKAIAATGRPIHLELSWSLDIGHAADWKKYSNGWRIDTDIECYCNTLVTWENSVNDRWDDAPAWSSKAGPGGWNDLDAIDVGNGEMDGLTKAERQSYMTLWAINKSPLFTGDDLTKLDSYGVSLLTNKEVIAVDQNTSPVARPVTPVGDQQVWGTKNADGSYTVALFNLGDSPASVTAHWASFGFTGNASVRDLWNKTNLGTHKNKITEALPAHGSRLFTIKPGGGTLATTGYEAEAAANTLSGNASVGGCDACSGGKKVGNLYTGGKLRINDITVKKDGIYTVKVAYVSGDPRSVTVLSNSGNGTSLKFPSTGDWSTAETVSVQLALKAGSNTITFDSGSGYAPDIDRIVVPQSV | failed
8 | MGTAMRSVAWGLAIALWPIAVWAENPEDLQRLLTTRQCERCDLQDSGLVLARLSGARLTGSNLQRANLSGADLSGADLRQTDLRGASLQRANLAGANLTGARLDGVDLREAWLTEAILTPQQLALAHIQGAQGLDVTALPFERYQAWGIEAIQAGRFERAISYFDLALQRNPKSASTYLSRAIAYQGLGRSEQAIADAQAAEQLYKSQQNPEGEKRSQELRTTIVAAQERVASSGSNGGNGGGSAALAVLTGIVQGVLPFLLGFPF | failed
9 | MGTEERKARQKRYPPVLQDSGERPRRRFPYVSRSFVPSVFTVMNMVSGYVSIVMAGEGSFVIAGWLIFLAAFFDTIDGFVARLTNSSSEFGVELDSLSDLVSFGAAPAYLVYKFGLEHIGMPWGLLLSSLLMVGSGLRLARFNINLIDYHKDSFSGLPTPAQAMTVASFVLWMSVEPLFTELALQKVLMVLSVLLATLMVSKVNYDALPKPTLESFRSHPVQMILYVIAIFCVLVFQAKAFFVAMLLYILLGIVRSLTRTVQEWQL | failed
10 | MGTKRIGILTSGGDCPGLNAVIRAVVKASALKGWEVYGIPYGTDGFVEVAHGKYQAEDLLLTKHGYALPGMLKGLDVLQFLSGSVLGSLSKGHPEQPAIAEAILKGYAILDLEALIVIGGDGSLDIIYDLAQKGNWHIIAIPKTIDNDVPFTDLAVGFSTAVDIVTQALYDLTFTAASHERIIIVQVMGRDAGHLTLHAGIAGGADIILIPEITPCLTSEIIRNCCYQLMNLRKSGRHFALIVISEGVHDQNNKKNKHIADYLAEEISETSQHLCDIKDPAFCDLISLDIRATTLGHLQRSGTPLSFDRLLATVFGIRAVELIEQEIYDQVVIWRSGKVEHADLKPIISIIKECHQENRCPFPVDRDGFMVKTAKSLGIYLGED | failed
11 | MGTLTCKDLNHKYRDTTMYKQQQIKQWFCGLSSITCQHISDWQKPHLGVLCAASAFLVLAAPVVNLPGSKLLAQTPISRDLETASFYQQGVTRYNRSDWQGAENAFRQALQREPNLAMARAYLGNIYLMQNRLDVAVQEYGEAIRLNPNLGETYYNLGLALQQQGKKEGAITAYRQALVIDPRRVEAYYNLGLVLYEQGLLQEAIAAYQDAVNLEPSKINAHHNLAIALQQTGKMEEAIVAYREVLKLDPKNAAAYSSLGSLMAMQGRPEEAIAAYTQAVRQDPKNALAYYNLGITLYNQGELQKASNAFKRAQEEYSQQGNLEQTEKTEQLMQQVAQKIEEQKLQQRQASTPKPTDNSTNNLLEKLTQLTAPKEQPANSGAVPVSDEQKQFPPIFPNTNSR | failed
12 | MGTMNVVGLAIYLYAGFLSFIFGFISLYAFIKYSKLERKNKEIIYVYVDNLKNFSPYMFYSILLTFTIVFVIFALFICFVFNFDLYLGLTMLFSYFLIIYLFCFKKYRVEIYKDGFYGVFQN | failed
13 | MGTPNDQAVLQAIFNPDTPFGDIVGLDLGEEAEKEEREEDEVFPQAQLEQSKALELQGVMAAEAGDLSTALERFGQAICLLPERASAYNNRAQARRLQGDVAGALEDLERAVELSGGRGRAARQSFVQRGLLARLQGRDDDARRDFERAARLGSPFARRQLVLLNPYAALCNRMLADMMGQLRRPRDSR | failed
14 | MGTTVMVPIYTSTAAASPYSINLASMPPKTVLSKGDEEIAAIALPRQPKFYDLKTADGIPYSHIALLHSNNVLATTVQQTCIRYRDESTVCQFCAIEKSLDAGRTITRKLPEQLAEVTEAAVRLDGIEQVIMTTGTPNSGDRGAAYLTKCAAAIKARVNIPIQAQCEPPDDFIWFERMKAAGVDSLGMHLEAVDPDVRAKIMPGKAEVPVSYYYEAYEAAVKVFGWGQVSTYLLAGLGDSFETLVEASEKLVNMGVYPFVVPFVPISETPLANHPAPDSDFMFALYQRVGTIIKQSQISSVDMKAGCAKCGACSALSTFAKLEHHHHHH | failed
15 | MGVALAAMCLMSAQAQRRNEIQVPNLNGYTTLKCDFHMHSVFSDGLVWPTVRVDEAYREGLDAISLTEHIEYRPHKKDIIADHNRSYELSQKQAKKLGILLIRGSEITRSMPPGHFNAIFLNDSNPLEQKAYKDAFNEAKKQGAFIFWNHPGWARQQPDSTLWWPEHTQLYNDGCMHGIEVANGGLFMPEAIQWCLDKNLTMIGTSDIHQPIQTDYDFSKGEHRTMTFVFAKERSPEGIREALDNRRTAVYYRELVIGREEILRPFFEKCVDIKEVKRTEKEVTFSVMNATDLVLKLKKTAHDPSLVYFREMTLKPHTQHTISVKFDNGIKGGDCNFEVTNFIVAPDKGLDYTIKL | not failed
16 | MGVVHHSVYAVYLEAARVDFLERAGLPYHRVEARGVFFPVVELGLTFRAPARFGEVVEVRTRLAELSSRALLFRYRVEREGVLLAEGFTRHLCQVGERAARIPEDIYRALSVLHLK | not failed
17 | MGYRRFLQLVAHEFFHLWNVKRIRPKALEQFDYEAENYTPSLWFSEGATSYYDLLLPLRAGLYGVDSFLEALGKDLSRYLTTPGRKVQPLAESSFDAWVKLYRRDAYSDNQQMSYYLKGQLVCWLLDLEIRNHQPDLEHHHHHH | not failed
18 | MHEFSTVDGFAEINESLAEMIKYIANEPSVGLYYIQQHIRNAAPNVINLNNNVLEKSRETGLHTEDLEDSIAMVKSMKDCGSPIADEMIGDIKNSLAIMSSKQPRRGVILNSTSPWSRSSSITTRTRGSDNSQDNSESSNYFTSVFMTAKEKASNIKWPQLDFKEQKSEADPNVQSNELKEEEEEDSGKGEHIVETTKFEEFKAGKEASLKAWLGDMDGNVDVGGRVAERI | not failed
19 | MHELSISRHIAAPPGKVWDVLANRQEEWWCPRPWWITLIAQERRPGGRSAMVMHGPDGEEMPQEGIFLAWDEGHRFVTTDAVTADFLPAGPFMVGIWEVEPEGEGTRYTASARHWTEEAMREHAEMGFEAGWNACADQLQALCEAD | failed
20 | MHEYSVVSSLIALCEEHAKKNQAHKIERVVVGIGERSAMDKSLFVSAFETFREESLVCKDAILDIVDEKVELECKDCSHVFKPNALDYGVCEKCHSKNVIITQGNEMRLLSLEMLAE | failed
21 | MHFSKEHINALETRTRAHFINSLSGFKSANLIGTQDRQGNTNLSIVSSVIHLGANPPLMGMIIRPHSVPRHTFENIMQTGLYTINHVNQSIYEQAHQTSARYDKDESEFEATGLTPEYLSDFCAPFVKESRLKYSVKLVEHQHLAINGTEFVIGEIVDVYVDDNAVQTDGFIDLQAIDTVAISGLDCYYTGDKLARLPYAKK | not failed
22 | MHGIDLHTHSNISDGTLSPSCLVDAAIACGIHTLALTDHDTMDGLETAIQQAQGHDIQIISGAEISSQWSRPNTKKAYGVHIVALNMQNPEPLLDALVIQKNIRAERAQQICQILQQCTGQDIYTDVLLKVEGEPDRITRTHIAKALVEKEIVARPQQAFDRFLKEGKRAYVKFDGLNLADTIRIIHESEGFAILAHPTRYDLSSTNVRYLIELFAKMGGDAVELPPSVDPVSTRQMIDRIIQQFDLKVSIGSDFHG | failed
23 | MHGLLPALKRGFKRWIGWRRLGIAASVFIIAFAITTLVRTLKGIDTGVILTALTEIPRGNIGLAAICVFFAFCTLTFYDFFALRTIGKKHVPYRIAALSSFTSYSIGHNIGATVFTGGAIRFRIYSDYGLNAIDVAKICFLSGLTFWLGNIFVLSIGMAVHPDAASSMDQLPSSINRLIALGGLASIGAYLVWLCMGEKRRELGQKGWKVVLPSAPLTLVQILIGVVDLGFCATAMYLLIPATPPIDFLSLAVVFILATLLGFASHAPGSIGVFDAAMLVALPEFGREQLLATLLVFRLLYFVIPFGLAISIMGTRELWMNVVEPWQERRRLAEACAQANLPKQVAAMERERSLRQASKR | failed
24 | MHIHILGICGTFMGGIAAIARNAGHTVTGCDANVYPPMSDQLRALGIELTEGWDAGQVRLEPDAFVVGNVVTRGNPLMEAILERGLPYTSGPQWLADNVLRDKWVLAVAGTHGKTTTSAMLAWILEDARLHPGFLVGGIPQNFGLSARLTDSPFFVIEADEYDTAFFDKRSKFVHYRPRTAILNNLEFDHADIFPDIQAIETQFHHLVRTIPGNGLIVANGREAALDRVLERGLWTPVERFGSIGGWTAGEADASGSFDVHFNSALQGRVRWELIGEHNRMNALAAIAAARHAGVPAAAAIDALSRFENVKRRMEIRGAVHGITVYDDFAHHPTAITTTVQGLRAKVGNARILAVLEPRSNTMKLGVMKDALPASLAGADEVYCYGANLGWDAAEALAPLGEKARVFDNLDKLVAQLVADGRPGDHVLMMSNGGFGGIHAKLLDALHHHYHEEIVLTPMHRYGGYA | failed
25 | MHIRRDQYMNEYVWETCEELDKKIADRVRLIRKRRSISQEKLSKISNVSLGSIKRFETTGQISLLSLTKIAVALNIADDLRNIFTEIPYNSIEEVINERR | not failed
